In article PMC9881579, “Reconfigurable asymmetric protein assemblies through implicit negative design” (Science (New York, N.Y.), 2022):

Assays:
Details in all cases: both partners purified
LHD202A [1] = target: T1, LHD202A; experiment: BLI; biotinylated protomer on streptavidin biosensors, designed partner in solution; 25 °C; 10 mM HEPES pH 7.4, 150 mM NaCl, 3 mM EDTA, 0.05% Surfactant P20, 1 mg/ml BSA; global kinetic fit, 1:1 model
T1 construct: de novo designed protomer; BLI: one protomer of the pair was Avi-tagged, biotinylated and immobilised; also called LHD202 protomer A; source: E. coli BL21 LEMO, purified (Ni-NTA, SEC)

LHD202A [2] = target: T1, LHD202A; experiment: BLI; biotinylated protomer on streptavidin biosensors, designed partner in solution; 25 °C; 10 mM HEPES pH 7.4, 150 mM NaCl, 3 mM EDTA, 0.05% Surfactant P20, 1 mg/ml BSA; steady-state fit, 1:1 model
LHD275B [3] = target: T2, LHD275B; experiment: BLI; biotinylated protomer on streptavidin biosensors, designed partner in solution; 25 °C; 10 mM HEPES pH 7.4, 150 mM NaCl, 3 mM EDTA, 0.05% Surfactant P20, 1 mg/ml BSA; global kinetic fit, 1:1 model
T2 construct: de novo designed protomer; BLI: one protomer of the pair was Avi-tagged, biotinylated and immobilised; source: E. coli BL21 LEMO, purified (Ni-NTA, SEC)

LHD275B [4] = target: T2, LHD275B; experiment: BLI; biotinylated protomer on streptavidin biosensors, designed partner in solution; 25 °C; 10 mM HEPES pH 7.4, 150 mM NaCl, 3 mM EDTA, 0.05% Surfactant P20, 1 mg/ml BSA; steady-state fit, 1:1 model
LHD278B [5] = target: T3, LHD278B; experiment: BLI; biotinylated protomer on streptavidin biosensors, designed partner in solution; 25 °C; 10 mM HEPES pH 7.4, 150 mM NaCl, 3 mM EDTA, 0.05% Surfactant P20, 1 mg/ml BSA; global kinetic fit, 1:1 model
T3 construct: de novo designed protomer; BLI: one protomer of the pair was Avi-tagged, biotinylated and immobilised; source: E. coli BL21 LEMO, purified (Ni-NTA, SEC)

LHD278B [6] = target: T3, LHD278B; experiment: BLI; biotinylated protomer on streptavidin biosensors, designed partner in solution; 25 °C; 10 mM HEPES pH 7.4, 150 mM NaCl, 3 mM EDTA, 0.05% Surfactant P20, 1 mg/ml BSA; steady-state fit, 1:1 model
LHD284B [7] = target: T4, LHD284B; experiment: BLI; biotinylated protomer on streptavidin biosensors, designed partner in solution; 25 °C; 10 mM HEPES pH 7.4, 150 mM NaCl, 3 mM EDTA, 0.05% Surfactant P20, 1 mg/ml BSA; global kinetic fit, 1:1 model
T4 construct: de novo designed protomer; BLI: one protomer of the pair was Avi-tagged, biotinylated and immobilised; also called LHD284 protomer B; source: E. coli BL21 LEMO, purified (Ni-NTA, SEC)

LHD284B [8] = target: T4, LHD284B; experiment: BLI; biotinylated protomer on streptavidin biosensors, designed partner in solution; 25 °C; 10 mM HEPES pH 7.4, 150 mM NaCl, 3 mM EDTA, 0.05% Surfactant P20, 1 mg/ml BSA; steady-state fit, 1:1 model
LHD289B [9] = target: T5, LHD289B; experiment: BLI; biotinylated protomer on streptavidin biosensors, designed partner in solution; 25 °C; 10 mM HEPES pH 7.4, 150 mM NaCl, 3 mM EDTA, 0.05% Surfactant P20, 1 mg/ml BSA; global kinetic fit, 1:1 model
T5 construct: de novo designed protomer; BLI: one protomer of the pair was Avi-tagged, biotinylated and immobilised; source: E. coli BL21 LEMO, purified (Ni-NTA, SEC)

LHD289B [10] = target: T5, LHD289B; experiment: BLI; biotinylated protomer on streptavidin biosensors, designed partner in solution; 25 °C; 10 mM HEPES pH 7.4, 150 mM NaCl, 3 mM EDTA, 0.05% Surfactant P20, 1 mg/ml BSA; steady-state fit, 1:1 model
LHD298B [11] = target: T6, LHD298B; experiment: BLI; biotinylated protomer on streptavidin biosensors, designed partner in solution; 25 °C; 10 mM HEPES pH 7.4, 150 mM NaCl, 3 mM EDTA, 0.05% Surfactant P20, 1 mg/ml BSA; global kinetic fit, 1:1 model
T6 construct: de novo designed protomer; BLI: one protomer of the pair was Avi-tagged, biotinylated and immobilised; also called LHD298 protomer B; source: E. coli BL21 LEMO, purified (Ni-NTA, SEC)

LHD298B [12] = target: T6, LHD298B; experiment: BLI; biotinylated protomer on streptavidin biosensors, designed partner in solution; 25 °C; 10 mM HEPES pH 7.4, 150 mM NaCl, 3 mM EDTA, 0.05% Surfactant P20, 1 mg/ml BSA; steady-state fit, 1:1 model
LHD317B [13] = target: T7, LHD317B; experiment: BLI; biotinylated protomer on streptavidin biosensors, designed partner in solution; 25 °C; 10 mM HEPES pH 7.4, 150 mM NaCl, 3 mM EDTA, 0.05% Surfactant P20, 1 mg/ml BSA; global kinetic fit, 1:1 model
T7 construct: de novo designed protomer; BLI: one protomer of the pair was Avi-tagged, biotinylated and immobilised; source: E. coli BL21 LEMO, purified (Ni-NTA, SEC)

LHD317B [14] = target: T7, LHD317B; experiment: BLI; biotinylated protomer on streptavidin biosensors, designed partner in solution; 25 °C; 10 mM HEPES pH 7.4, 150 mM NaCl, 3 mM EDTA, 0.05% Surfactant P20, 1 mg/ml BSA; steady-state fit, 1:1 model
LHD101B [15] = target: T8, LHD101B (biotin on the Avi-tag where immobilised (Fig. S3D)); experiment: BLI; biotinylated protomer on streptavidin biosensors, designed partner in solution; 25 °C; 10 mM HEPES pH 7.4, 150 mM NaCl, 3 mM EDTA, 0.05% Surfactant P20, 1 mg/ml BSA; global kinetic fit, 1:1 model
T8 construct: de novo designed protomer; also called LHD101 protomer B; source: E. coli BL21 LEMO, purified (Ni-NTA, SEC)

LHD101B [16] = target: T8, LHD101B; experiment: BLI; biotinylated protomer on streptavidin biosensors, designed partner in solution; 25 °C; 10 mM HEPES pH 7.4, 150 mM NaCl, 3 mM EDTA, 0.05% Surfactant P20, 1 mg/ml BSA; steady-state fit, 1:1 model

T1 sequence (main, as listed by the source): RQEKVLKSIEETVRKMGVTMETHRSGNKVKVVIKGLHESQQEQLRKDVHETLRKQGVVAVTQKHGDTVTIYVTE

B1: LHD202B (designed binder)
chain: SVEFHIVNISEEQRQRIEEYVRRISKKEGTEVRFEKRDGELTIEVKNLHEKRLQEILEYIERVNK
- Kd (LHD202A [1]): 4800 ± 250 nM
- koff (LHD202A [1]): 0.29 ± 0.05 s⁻¹
- kon (LHD202A [1]): 60000 M⁻¹ s⁻¹
- Kd (LHD202A [2]): 2400 ± 170 nM

B2: LHD275A (designed binder)
chain: GRQEKVLKSIEETVRKMGVEMLTFRAGNAVIVVIRGLHPEQAKQLLRDVSQTAHKQGVTVTLTFHGDVVFILVLVGASEEEQKHMQERIQELARIIHEAKRRGVSEEQLREIAEKMAKEIQEWG
- Kd (LHD275B [3]): 2.9 ± 0.01 nM
- koff (LHD275B [3]): 0.00041 s⁻¹
- kon (LHD275B [3]): 140000 M⁻¹ s⁻¹
- Kd (LHD275B [4]): 4.5 ± 0.22 nM

B3: LHD278A (designed binder)
chain: GRQEKVLKSIEETVRKMGVRMLTHRGGNAVIVVIEGLHPSQIKQLMQDVIKTAKKQGVTVTITVSGDIVVIMVVVGASDEEQEEARRLVQEIARALQEAKRKGANEEQLEQLLRELLERAEREG
- Kd (LHD278B [5]): 0.8 ± 0.003 nM
- koff (LHD278B [5]): 0.00022 s⁻¹
- kon (LHD278B [5]): 290000 M⁻¹ s⁻¹
- Kd (LHD278B [6]): 3.4 ± 0.69 nM

B4: LHD284A (designed binder)
chain: TDELLERLRQLFEELHERGTIIIVEVHINGERQTKYLILAPKEELKKHLERIREKIEREGSSEVEVKVTSGGTTWTFNEK
- Kd (LHD284B [7]): 8.9 ± 0.13 nM
- koff (LHD284B [7]): 0.0012 s⁻¹
- kon (LHD284B [7]): 130000 M⁻¹ s⁻¹
- Kd (LHD284B [8]): 97 ± 13 nM

B5: LHD289A (designed binder)
chain: GRQEKVLKSIEETVRKMGVTMLTHRHGNVVFVVILGLHKQQALQLLRDVHRTAHKQGVTLSITFSGDIVVIAVTVGASEEEKKEVRKIVKEIAKQLRHAETEEEAKEIVQRVIEEWQEEG
- Kd (LHD289B [9]): 1080 ± 39 nM
- koff (LHD289B [9]): 0.057 s⁻¹
- kon (LHD289B [9]): 53000 M⁻¹ s⁻¹
- Kd (LHD289B [10]): 610 ± 120 nM

B6: LHD298A (designed binder)
chain: GRQEKVLKSIEETVRKMGVTMETHRSGNTVKVVIKGLHESQQEQLHKDVEETVQKEGVFVLVSHHGDTVTIQVYE
- Kd (LHD298B [11]): 3.5 ± 0.01 nM
- koff (LHD298B [11]): 0.00022 s⁻¹
- kon (LHD298B [11]): 64000 M⁻¹ s⁻¹
- Kd (LHD298B [12]): 16 ± 3 nM

B7: LHD317A (designed binder)
chain: GRQEKVLKSIEETVRKMGVRMLTHRGGNAVIVVIEGLHPSQAEQLLRDVHRTAKKQGVTVHLVFTGDIVVIMVVVGASEEEQEEMHRLVREIAEALHEAKRKGANEEQLEQLLRELLERAEREG
- Kd (LHD317B [13]): 34.7 ± 0.05 nM
- koff (LHD317B [13]): 0.0051 s⁻¹
- kon (LHD317B [13]): 150000 M⁻¹ s⁻¹
- Kd (LHD317B [14]): 56 ± 2.3 nM

B8: LHD101A (designed binder)
chain: GRQEKVLKSIEETVRKMGVTMETHRSGNEVKVVIKGLHIKQQRQLYRDVRETSKKQGVETEIEVEGDTVTIVVRE
modifications: biotin on the Avi-tag where immobilised (Fig. S3D, S24B)
- Kd (LHD101B [15]): 1.9 ± 0.04 nM
- koff (LHD101B [15]): 0.0043 s⁻¹
- kon (LHD101B [15]): 2.2e+06 M⁻¹ s⁻¹
- Kd (LHD101B [16]): 9.5 ± 0.76 nM
